Results as given in patent publication US20060229240A1 (GARDELL ET AL, published 2006).
Read-outs that look alike come from different tables or passages of the source. Positions of bridges follow the written chain, without caps; N, C: chain ends. Non-standard residues stand in square brackets, D forms with d. No end group written: not given here. hArg = N=C(N)NCCCC[C@H](N)C(=O)O; Aib = CC(C)(N)C(=O)O

How the values were obtained:
[1] = biological target: T1, P1R-DelNt (truncated human P1R deleted for residues 24-181) (human, UniProt Q03431 182-593); test: cell-based or functional assay
T1 sequence (looked up): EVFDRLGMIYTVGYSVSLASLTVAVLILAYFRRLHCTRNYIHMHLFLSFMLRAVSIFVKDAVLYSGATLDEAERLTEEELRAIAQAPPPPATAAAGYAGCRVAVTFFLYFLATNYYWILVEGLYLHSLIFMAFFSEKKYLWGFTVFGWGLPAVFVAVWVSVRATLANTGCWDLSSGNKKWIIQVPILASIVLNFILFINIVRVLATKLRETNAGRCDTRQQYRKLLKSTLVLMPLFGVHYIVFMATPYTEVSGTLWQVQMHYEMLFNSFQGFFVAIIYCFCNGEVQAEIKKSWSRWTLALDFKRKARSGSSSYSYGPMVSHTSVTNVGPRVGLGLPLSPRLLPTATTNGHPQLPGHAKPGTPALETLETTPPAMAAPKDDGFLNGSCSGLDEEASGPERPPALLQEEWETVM

[2] = biological target: T2, PTH/PTHrP receptor (P1R), wild-type, full-length (human, UniProt Q03431 27-593); test: cell-based or functional assay
T2 sequence (looked up): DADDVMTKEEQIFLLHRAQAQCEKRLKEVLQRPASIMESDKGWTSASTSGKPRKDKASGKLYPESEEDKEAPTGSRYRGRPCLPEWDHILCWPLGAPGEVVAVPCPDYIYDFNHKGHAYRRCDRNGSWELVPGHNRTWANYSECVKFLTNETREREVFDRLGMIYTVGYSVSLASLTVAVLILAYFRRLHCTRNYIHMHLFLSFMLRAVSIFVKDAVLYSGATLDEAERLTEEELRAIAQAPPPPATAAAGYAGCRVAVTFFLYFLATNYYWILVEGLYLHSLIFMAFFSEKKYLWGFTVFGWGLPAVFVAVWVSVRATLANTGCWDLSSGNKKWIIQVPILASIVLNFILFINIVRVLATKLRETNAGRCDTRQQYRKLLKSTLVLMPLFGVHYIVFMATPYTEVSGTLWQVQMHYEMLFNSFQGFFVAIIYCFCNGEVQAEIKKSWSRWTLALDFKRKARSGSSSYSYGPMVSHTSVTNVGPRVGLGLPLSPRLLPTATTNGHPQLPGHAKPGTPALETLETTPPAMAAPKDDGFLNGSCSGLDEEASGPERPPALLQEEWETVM

[3] = biological target: T2, PTH/PTHrP receptor (P1R), wild-type, …; test: competition with 125I-[Ala3,12,Gln10,Har11,Trp14,Arg19,Tyr21]PTH(1-21)-amide tracer on HKRK-B28 cells expressing P1R
Experimental: Competition Binding. Binding reactions were performed with […] cells or in COS-7 cells in 24-well plates. The cells were rinsed with 0.5 mL of binding buffer, and then treated successively with 100 μL binding buffer, 100 μL of binding buffer containing various amounts of unlabeled competitor ligand, and 100 μL of binding buffer containing ca. 100,000 cpm of ¹²⁵I-[M]PTH(1-21)(SEQ. ID. NO. 16) or ¹²⁵I-[Aib^{1,3},M]PTH(1-21)(SEQ. ID. NO. 17) (ca. 26 fmol; final volume=300 μL). Incubations were 4 to 6 h at 4° C., at which time near equilibrium conditions were attained. Cells were then placed on ice, the binding medium was removed, and the monolayer was rinsed three times with 0.5 mL of cold binding buffer. The cells were subsequently lysed with 0.5 mL 5N NaOH and counted for radioactivity. For each tracer and in each experiment, the non-specific binding was determined as the radioactivity that bound in the presence of the same unlabeled peptide at a concentration of 1 μM, and was ˜1% of total radioactivity added for each tracer. The maximum specific binding (B₀) was the total radioactivity bound in the absence of competing ligand, corrected for nonspecific binding, and for each tracer, ranged from 8% to 20% of the total radioactivity added. Nonlinear regression was used to calculate binding IC₅₀ values (see below). Scatchard transformations of homologous competition binding data derived from studies with 26 fmol of ¹²⁵I-[Aib^{1,3},M]PTH(1-21) (SEQ. ID. NO. 17) were employed for estimations of apparent equilibrium dissociation constant (kDapps) and total number of ligand binding sites (Bₘₐₓ), assuming a single class of binding sites and equal affinities of the iodinated and non iodinated ligand.
The peptide PTH(1-34) ([Tyr³⁴]bPTH(1-34)NH₂) (SEQ. ID. NO. 10) and analogs containing substitutions at positions 6 and/or 10 in place of Gln and Asn, respectively, were evaluated in HKRK-B28 cells for the capacity to stimulate cAMP accumulation, and to inhibit the binding of ¹²⁵I-[Ala^{3,12}, Gln¹⁰, Har¹¹, Trp¹⁴,Arg¹⁹, Tyr²¹]PTH(1-21)-amide (SEQ. ID. NO. 30) tracer radioligand.

[4] = biological target: T2, PTH/PTHrP receptor (P1R), wild-type, …; test: cell-based or functional assay; remark: listed apart in the source
[5] = biological target: T2, PTH/PTHrP receptor (P1R), wild-type, …; test: cell-based or functional assay; remark: listed apart in the source
[6] = biological target: T2, PTH/PTHrP receptor (P1R), wild-type, …; test: cell-based or functional assay; remark: listed apart in the source
[7] = biological target: T2, PTH/PTHrP receptor (P1R), wild-type, …; test: cell-based or functional assay; remark: listed apart in the source
[8] = biological target: T1, P1R-DelNt (truncated human P1R deleted …); test: cell-based or functional assay; remark: listed apart in the source
[9] = biological target: T1, P1R-DelNt (truncated human P1R deleted …); test: cell-based or functional assay; remark: listed apart in the source

B1: [Ala^10]PTH(1-34) (peptide)
peptide: SVSEIQLMHALGKHLNSMERVEWLRKKLQDVHNY-NH2
Which “cAMP EC50” value [1] does the source give for B1 here?
Its value is 14 µM.

What about the “cAMP Emax (%)” value [1] of the same binder?
Its value is 46%.

And the “cAMP EC50” value [2]?
Its value is 0.27 µM.

And the “cAMP Emax (%)” value [2]?
The value was 96%.

And the IC50 [3]?
The IC50 was 6.4 µM.

And the “cAMP EC50” value [4]?
Its value is 3 µM.

And the “cAMP Emax (%)” value [4]?
The value was 106%.

B2: [(Lys^6, Glu^10)lac.]PTH(1-14) (peptide)
peptide: AVAEIKLMHE[hArg]AKW-NH2
modifications: lactam 6-10; N-terminus assumed
SMILES: CC[C@H](C)[C@H](NC(=O)[C@H](CCC(=O)O)NC(=O)[C@H](C)NC(=O)[C@@H](NC(=O)[C@H](C)N)C(C)C)C(=O)N[C@H]1CCCCNC(=O)CC[C@@H](C(=O)N[C@@H](CCCCNC(=N)N)C(=O)N[C@@H](C)C(=O)N[C@@H](CCCCN)C(=O)N[C@@H](Cc2c[nH]c3ccccc23)C(N)=O)NC(=O)[C@H](Cc2c[nH]cn2)NC(=O)[C@H](CCSC)NC(=O)[C@H](CC(C)C)NC1=O
Which “cAMP EC50” value [5] does the source give for B2 here?
Its value is 21 µM.

And the “cAMP Emax (%)” value [5]?
The value was 59%.

What about the “cAMP potency relative to linear [Lys^6, Glu^10]PTH(1-14)” value [6] of the same binder?
Its value is 6 fold.

B3: PTH(1-11) (AlaValAlaGluIleGlnLeuMetHisGlnArg-amide) (peptide)
peptide: AVAEIQLMHQR-NH2
B3 was tested. Which “cAMP EC50” value [7] did it give?
Its value is 5 µM.

What about the “cAMP Emax (%)” value [7] of the same binder?
Its value is 100%.

And the “cAMP EC50” value [8]?
The value was 14 µM.

And the “cAMP Emax (%)” value [8]?
The value was 100%.

And the “fold increase in cAMP formation” value [9]?
The value was 55 fold.

What about the “fold increase in cAMP formation” value [6] of the same binder?
Its value is 75 fold.

B4: [Aib^1,3]PTH(1-14) (AibValAibGluIleGlnLeuMetHisGlnHarAlaLysTrp-amide) (peptide)
peptide: [Aib]V[Aib]EIQLMHQ[hArg]AKW-NH2
modifications: N-terminus assumed
SMILES: CC[C@H](C)[C@H](NC(=O)[C@H](CCC(=O)O)NC(=O)C(C)(C)NC(=O)[C@@H](NC(=O)C(C)(C)N)C(C)C)C(=O)N[C@@H](CCC(N)=O)C(=O)N[C@@H](CC(C)C)C(=O)N[C@@H](CCSC)C(=O)N[C@@H](Cc1c[nH]cn1)C(=O)N[C@@H](CCC(N)=O)C(=O)N[C@@H](CCCCNC(=N)N)C(=O)N[C@@H](C)C(=O)N[C@@H](CCCCN)C(=O)N[C@@H](Cc1c[nH]c2ccccc12)C(N)=O
For B4, which “cAMP EC50” value [8] is on record?
The value was 0.0066 µM.

And the “cAMP Emax (%)” value [8]?
The value was 100%.

What about the “fold increase in cAMP accumulation” value [9] of the same binder?
The value was 50 fold.
